Data as given in PMC7065273 (Molecular cell, 2019).

Biological target: His6-FLAG-tagged U2AF2 (amino acids 367-475), purified from E. coli (UniProt P26368 367-475)
Assay: co-IP

Chain of His6-FLAG-tagged U2AF2 (amino acids 367-475), purified from E. coli (P26368 367-475): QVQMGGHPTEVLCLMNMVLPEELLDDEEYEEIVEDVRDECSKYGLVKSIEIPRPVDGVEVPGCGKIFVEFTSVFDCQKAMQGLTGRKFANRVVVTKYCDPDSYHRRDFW

binding result: binds
Binder: APAAPGKPASAATVKRKRKSRWGPEEDKVELPPAEL (domain or fragment, UniProt Q8IWZ8 366-401, looked up) [GST-tagged SUGP1 (amino acids 366-401), purified from E. coli]
